Experimental data published in article PMC6662825.

Target: Trx-NVL^167–216-(GS)3-eYFP (human) (UniProt O15381)
Test: MST; 50 nM Trx-NVL^167–216-(GS)3-eYFP with a 1:1 dilution series of unlabeled MTR4 KOW; 50 mM Hepes/NaOH pH 7.5, 150 mM NaCl, 5% glycerol, 0.5 mM TCEP; MST power 20%, LED power 20%; triplicates

Trx-NVL^167–216-(GS)3-eYFP (human), sequence (O15381 167-216): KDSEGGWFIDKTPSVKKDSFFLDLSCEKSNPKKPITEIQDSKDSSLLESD

Kd: 1 µM
B1: MTR4-KOW (domain or fragment)
chain: HKPKYCLPFLQPGRLVKVKNEGDDFGWGVVVNFSKKSNVKPNSGELDPLYVVEVLLRCSKESLKNSATEAAKPAKPDEKGEMQVVPVLVHLLSAISSVRLYIPKDLRPVDNRQSVLKSIQEVQKRFPDGIPLLDPIDDMGIQD
